Laboratory results: patent US20210171950, “METHOD OF PRODUCING AN APTAMER AND USES THEREOF” (City University of Hong Kong, published 2021)

Molecular target: T1, RHAU53 peptide (DHX36/RHAU residues 53-106 as printed) (UniProt Q9H2U1 SEQ:1-53)
T1 sequence: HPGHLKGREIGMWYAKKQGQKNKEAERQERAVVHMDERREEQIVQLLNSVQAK
Assay: EMSA; 80 nM RHAU53, 2 nM FAM-D-TERRA; 25 mM Tris-HCl pH 7.5, 150 mM KCl, 1 mM MgCl2, 37 C; gel with 40 mM KOAc; complex formation inhibited by L-RNA Ap3-7 (SEQ 19, binds the TERRA RNA) with IC50 937.1±1.7 nM
Conditions: tags: peptide obtained from OriGene; label: 5'FAM; G4 (3 G-quartets, UUA loops)
Method: L-RNA Ap3-7 and S′FAM labelled D-RNA TERRA were heated at 75° C. for 3 minutes and cooled down separately. Then, reaction mixtures containing 2 nM 5′FAM labelled D-TERRA, 25 mM Tris-HCl (pH 7.5), 150 mM KCl and 1 mM MgCl₂ were prepared. Corresponding amount of L-Ap3-7 and 80 nM RHAU53 were premixed, then added to the specific samples and incubated at 37° C. for 30 minutes. The final samples were loaded onto a native PAGE (6%, 49:1), containing 40 mM KOAc, 1 mM MgCl₂ and 0.5×TBE (pH 8.3), and run at 30 mA for 75 minutes.
To study if L-Ap3-7 can compete with rG4-binding protein and inhibit the D-TERRA rG4-protein complex formation, the inventors have tested it with RHAU53 peptide. Particularly, L-RNA Ap3-7 and S′FAM labelled D-RNA TERRA were heated at 75° C. for 3 minutes and cooled down separately. Then, reaction mixtures containing 2 nM 5′FAM labelled D-TERRA, 25 mM Tris-HCl (pH 7.5), 150 mM KCl and 1 mM MgCl₂ were prepared. Corresponding amount of L-Ap3-7 and 80 nM RHAU53 were premixed, then added to the specific samples and incubated at 37° C. for 30 minutes. The final samples were loaded onto a native PAGE (6%, 49:1), containing 40 mM KOAc, 1mM MgCl₂ and 0.5 X TBE (pH 8.3), and run at 30 mA for 75 minutes. […]

B1: D-TERRA rG4 (ssRNA)
RNA: UUAGGGUUAGGGUUAGGGUUAGGG
B1: binds.
